Experimental data published in paper PMC11215335 (The Journal of Biological Chemistry, 2024).

Tests used:
Test in all cases: ELISA; polyreactivity assay, second experiment (Fig. 3D): antigen coated at constant concentration (proteins 5 ug/ml, bicarbonate buffer pH 9.6); mAb, Fab or scFv serially diluted two-fold from 34 nM Fv; 1 h at 37 C; alkaline phosphatase-conjugated secondary antibody; 'saturating Ag conditions'
Details in all cases: both partners purified
thyroglobulin = target: T1, thyroglobulin (Bos taurus (assumed from catalogue item …, UniProt P01267))
T1 construct: thyroglobulin, Sigma T1001; As I recall, this catalogue item is thyroglobulin from bovine thyroid; source: bought: Sigma (T1001)

tubulin = target: T2, tubulin (Sus scrofa (brain tubulin, assumed from …, UniProt P02550;P02554))
T2 construct: tubulin alpha chain; Cytoskeleton T240-A; tubulin beta chain; As I recall, this catalogue item is tubulin purified from porcine brain (a mix of isotypes); source: bought: Cytoskeleton, Inc (T240-A)

actin = actin (Bos taurus (muscle actin, assumed from …, UniProt P68138))

Measured: binding result

T1 sequence (P01267 20-2769): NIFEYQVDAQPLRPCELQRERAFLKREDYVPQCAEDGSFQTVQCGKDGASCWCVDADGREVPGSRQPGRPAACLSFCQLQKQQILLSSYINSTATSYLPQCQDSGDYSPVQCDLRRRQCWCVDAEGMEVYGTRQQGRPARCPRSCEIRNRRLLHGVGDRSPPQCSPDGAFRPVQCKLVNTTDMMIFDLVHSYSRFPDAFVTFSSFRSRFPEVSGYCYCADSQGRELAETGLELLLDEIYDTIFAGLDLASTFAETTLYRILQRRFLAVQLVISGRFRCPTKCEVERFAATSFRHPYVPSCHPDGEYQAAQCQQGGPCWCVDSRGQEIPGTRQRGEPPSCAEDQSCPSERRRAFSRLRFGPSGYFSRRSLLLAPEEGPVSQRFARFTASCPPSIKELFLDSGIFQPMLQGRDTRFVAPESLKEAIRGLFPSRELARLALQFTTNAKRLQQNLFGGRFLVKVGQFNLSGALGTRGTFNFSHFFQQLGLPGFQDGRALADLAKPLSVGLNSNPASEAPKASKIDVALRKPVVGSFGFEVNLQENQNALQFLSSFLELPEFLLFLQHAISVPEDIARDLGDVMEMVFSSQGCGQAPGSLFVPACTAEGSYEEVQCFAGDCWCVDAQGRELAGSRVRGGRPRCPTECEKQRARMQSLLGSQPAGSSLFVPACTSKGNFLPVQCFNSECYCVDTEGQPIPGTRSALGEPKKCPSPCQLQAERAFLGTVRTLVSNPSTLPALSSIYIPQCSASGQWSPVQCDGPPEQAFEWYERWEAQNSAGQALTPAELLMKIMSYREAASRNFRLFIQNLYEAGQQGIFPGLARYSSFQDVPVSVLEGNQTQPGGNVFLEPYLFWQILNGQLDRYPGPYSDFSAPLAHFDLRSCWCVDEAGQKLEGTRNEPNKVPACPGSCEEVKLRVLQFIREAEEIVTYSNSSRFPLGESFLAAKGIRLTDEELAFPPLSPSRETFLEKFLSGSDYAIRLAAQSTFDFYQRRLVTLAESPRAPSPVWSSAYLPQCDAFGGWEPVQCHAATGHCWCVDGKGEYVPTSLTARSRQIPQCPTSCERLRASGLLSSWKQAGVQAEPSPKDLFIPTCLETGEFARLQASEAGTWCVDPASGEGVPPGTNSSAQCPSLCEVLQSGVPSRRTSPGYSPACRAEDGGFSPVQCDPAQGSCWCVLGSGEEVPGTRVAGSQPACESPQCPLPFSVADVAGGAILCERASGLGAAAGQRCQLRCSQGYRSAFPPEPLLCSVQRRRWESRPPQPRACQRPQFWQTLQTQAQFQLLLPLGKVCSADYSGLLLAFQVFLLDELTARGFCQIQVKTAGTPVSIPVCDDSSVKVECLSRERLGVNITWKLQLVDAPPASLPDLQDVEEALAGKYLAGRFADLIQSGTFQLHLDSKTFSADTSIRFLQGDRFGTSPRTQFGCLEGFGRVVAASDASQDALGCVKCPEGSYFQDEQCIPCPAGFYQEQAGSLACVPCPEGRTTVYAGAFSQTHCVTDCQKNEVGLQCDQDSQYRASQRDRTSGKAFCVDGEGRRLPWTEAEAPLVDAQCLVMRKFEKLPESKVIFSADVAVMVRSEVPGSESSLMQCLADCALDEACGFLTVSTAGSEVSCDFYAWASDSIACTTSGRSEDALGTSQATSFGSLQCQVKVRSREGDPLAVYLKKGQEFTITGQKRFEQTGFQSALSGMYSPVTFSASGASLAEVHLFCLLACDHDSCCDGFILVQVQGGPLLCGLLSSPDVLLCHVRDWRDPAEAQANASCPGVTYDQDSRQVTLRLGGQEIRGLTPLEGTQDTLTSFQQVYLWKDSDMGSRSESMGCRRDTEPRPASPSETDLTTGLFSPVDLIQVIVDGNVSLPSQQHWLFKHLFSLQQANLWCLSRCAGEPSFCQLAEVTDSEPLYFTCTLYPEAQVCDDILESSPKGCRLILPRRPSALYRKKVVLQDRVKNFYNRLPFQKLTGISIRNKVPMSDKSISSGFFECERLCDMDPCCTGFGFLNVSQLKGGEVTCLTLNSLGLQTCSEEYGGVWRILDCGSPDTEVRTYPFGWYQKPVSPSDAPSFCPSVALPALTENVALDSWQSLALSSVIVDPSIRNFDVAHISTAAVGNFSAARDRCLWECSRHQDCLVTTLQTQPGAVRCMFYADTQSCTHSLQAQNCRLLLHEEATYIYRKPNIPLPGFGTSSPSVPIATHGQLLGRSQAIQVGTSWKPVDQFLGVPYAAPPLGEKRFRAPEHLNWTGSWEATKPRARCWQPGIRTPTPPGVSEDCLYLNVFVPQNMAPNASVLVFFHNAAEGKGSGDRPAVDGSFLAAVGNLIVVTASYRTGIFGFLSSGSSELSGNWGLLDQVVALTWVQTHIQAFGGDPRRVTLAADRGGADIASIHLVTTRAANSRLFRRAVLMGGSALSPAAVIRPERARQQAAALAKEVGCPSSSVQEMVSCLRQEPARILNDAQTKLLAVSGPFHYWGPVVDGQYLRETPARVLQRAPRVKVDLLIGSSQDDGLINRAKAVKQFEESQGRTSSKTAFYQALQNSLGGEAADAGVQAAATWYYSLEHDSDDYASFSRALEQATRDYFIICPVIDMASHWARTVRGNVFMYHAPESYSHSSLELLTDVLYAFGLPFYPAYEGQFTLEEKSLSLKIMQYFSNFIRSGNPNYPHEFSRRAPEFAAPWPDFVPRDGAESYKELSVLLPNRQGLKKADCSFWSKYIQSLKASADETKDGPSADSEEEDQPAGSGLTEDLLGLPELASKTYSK
T2 sequence (P02554 whole entry, looked up, chain 1 of 2): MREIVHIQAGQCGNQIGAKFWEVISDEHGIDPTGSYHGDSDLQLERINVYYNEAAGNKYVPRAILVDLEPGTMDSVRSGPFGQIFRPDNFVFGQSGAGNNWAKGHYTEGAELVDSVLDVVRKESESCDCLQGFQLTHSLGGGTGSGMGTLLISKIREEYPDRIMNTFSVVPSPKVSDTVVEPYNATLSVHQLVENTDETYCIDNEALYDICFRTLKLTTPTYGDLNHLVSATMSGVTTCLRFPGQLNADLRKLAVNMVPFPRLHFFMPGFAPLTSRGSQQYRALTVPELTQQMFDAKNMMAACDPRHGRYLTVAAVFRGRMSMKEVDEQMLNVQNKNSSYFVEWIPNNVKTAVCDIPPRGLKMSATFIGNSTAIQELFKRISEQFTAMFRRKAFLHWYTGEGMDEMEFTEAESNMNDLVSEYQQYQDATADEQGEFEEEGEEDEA
T2 sequence (P02550 whole entry, looked up, chain 2 of 2): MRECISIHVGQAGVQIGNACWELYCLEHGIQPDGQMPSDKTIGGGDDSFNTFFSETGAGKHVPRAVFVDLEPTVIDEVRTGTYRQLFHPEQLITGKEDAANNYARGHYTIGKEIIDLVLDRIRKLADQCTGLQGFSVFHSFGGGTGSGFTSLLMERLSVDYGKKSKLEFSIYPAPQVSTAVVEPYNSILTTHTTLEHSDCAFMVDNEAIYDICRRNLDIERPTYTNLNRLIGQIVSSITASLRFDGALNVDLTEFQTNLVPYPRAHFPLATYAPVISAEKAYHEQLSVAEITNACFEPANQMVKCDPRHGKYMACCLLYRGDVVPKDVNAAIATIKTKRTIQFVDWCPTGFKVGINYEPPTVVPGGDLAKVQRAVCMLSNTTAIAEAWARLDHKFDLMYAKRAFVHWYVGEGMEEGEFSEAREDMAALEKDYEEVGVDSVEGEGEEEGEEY

B1: single-chain Fv antibody fragment 18B7 (scFv, V domains shown)
VH: DVKLVESGGGLVKLGGSLKLSCVASGFTCSSYFMSWVRQTPEKRLELVAMINNNGDKTYYPDTVKGRFTISRDNAKNTLYLQMSSLKSEDTAMYYCARRDGTFGNHFDYWGQGTTLTVSS
VL: DVVMTQTPLSLPVSAGDQASISCRSSQSLCHSNGNTYLHWYLQKPGQSPKLLIYKVSNRFSGVPDKFSGSGSGTDFTLKISRVEAEDLGVYFCSQSTHVPWTFGGGTKLEIK
notes: VL of mAb 18B7; 15-residue linker, printed as (GGS)5 in the methods; the results call it (Gly4Ser)3; VH of mAb 18B7; A pelB leader was appended to the N-terminus; The tandem FLAG and His6 tags are at the C-terminus; also called scFv 18B7; scFv; source: E. coli BL21 STAR (pET22b+); also soluble in the periplasm; not shown: His6, C-terminal, kept
binds: thyroglobulin | tubulin | actin
